The text below walks through data of patent US20200054736A1.

The target in test [1] is meHER2-CAR, orientation Lc-Hc28ζ (meditope-enabled trastuzumab Fab-CAR). Put plainly: flow cytometry of lentivirally transduced primary human T cells stained with Meditope-AF647, top trace meHer2 (Lc-Hc28ζ). Untransduced control on the sheet: 1.83% MFI:1306. (In flow cytometry, cells or beads pass a laser one at a time.)
Test [2] shares this target. Briefly: flow cytometry of meHer2 (Lc-Hc28ζ) T cells pre-bound to meditope peptide and stained with protein L. Untransduced control, same quadrant: 0.50%.
The target of test [3] is meHER2-CAR, orientation Hc28ζ-Lc (meditope-enabled trastuzumab Fab-CAR). Briefly: flow cytometry of lentivirally transduced primary human T cells stained with Meditope-AF647, middle trace meHer2 (Hc28 ζ-Lc). Untransduced control on the sheet: 1.83% MFI:1306.
Test [4] has the same target. Put plainly: flow cytometry of meHer2 (Hc28 ζ-Lc) T cells pre-bound to meditope peptide and stained with protein L. Untransduced control, same quadrant: 0.50%.
For test [5] the target is unchanged. Briefly: flow cytometry of lentivirally transduced primary human T cells stained with protein L, middle trace meHer2 (Hc28 ζ-Lc). Untransduced control on the sheet: 13.16% MFI:1418.
Test [6] deals with meHER2-CAR, orientation Lc-Hc28ζ (meditope-enabled trastuzumab Fab-CAR). Put plainly: flow cytometry of meHer2 (Lc-Hc28ζ) T cells pre-bound to meditope peptide and stained with protein L. Untransduced control, same quadrant: 7.23%.
The target is the same in test [7]. Briefly: flow cytometry of meHer2 (Lc-Hc28ζ) T cells pre-bound to meditope peptide and stained with protein L. Untransduced control, same quadrant: 0.63%.
Test [8] addresses meHER2-CAR, orientation Hc28ζ-Lc (meditope-enabled trastuzumab Fab-CAR). Put plainly: flow cytometry of meHer2 (Hc28 ζ-Lc) T cells pre-bound to meditope peptide and stained with protein L. Untransduced control, same quadrant: 0.63%.
For test [9] the target is unchanged. Briefly: flow cytometry of meHer2 (Hc28 ζ-Lc) T cells pre-bound to meditope peptide and stained with protein L. Untransduced control, same quadrant: 7.23%.
The target of test [10] is Fab of the meditope-Fab interaction (not specified). Briefly: estimated; method not stated.
The target of test [11] is original trastuzumab meFab. Put plainly: Kinexa experiments, 25° C. (data not shown).

A value given as a limit tells only on which side of the number the result lay.

With Meditope-AF647 (peptide), the % positive cells (marker gate) in [1] came out at 57.1%; in [3] it was 54.4%. Further, the % cells Meditope+ Protein L- (upper left quadrant) in test [2] was 2.09%; in [4], 2.6%.

Substance protein L displayed a % positive cells (marker gate) in test [5] of 51.8%. Besides, the % cells Meditope- Protein L+ (lower right quadrant) in [6] was 16.1%; in test [9], 4.04%. The % cells Meditope+ Protein L+ (upper right quadrant) in [7] worked out at 43.1%; in [8], 42.1%.

Consider meditope-protein L fusion (MPL), for which the half-life of the complex in test [10] was over 80 days. Moreover, in test [11], the Kd is 0.014 nM and the fold over the affinity of the individual components is 87000 fold.

The Kd is the concentration at which binding is half-saturated. A lower Kd goes with tighter binding.
